As a reminder, the stoichiometry N is a count of units in the complex or per binding partner.

The target of this test is His6-Ku70-tRFP (human) (UniProt P12956). In words: SDS-PAGE without heat denaturation, fluorescence in the gel; samples not denatured at 94 °C; bands of His6-Ku70-tRFP seen by tRFP fluorescence.

In the case of “His6-Ku70-tRFP (from UniProt P12956 1-609) (natural protein)”, the stoichiometry N was found to be 2.

The values are drawn from PMC7563236.
